One may read the Kd as a measure of binding affinity in units of concentration.

For assay [1], the target named is T1, recombinant MST1R-Fc fusion protein (containing 25-571 amino acid sequence of human MST1R, R&D) (human, UniProt Q04912 25-571).
T1 construct: Bought from R&D systems; also called immobilized recombinant human MST1R; not shown: Fc part of the bought fusion protein (R&D systems)
T1 chain: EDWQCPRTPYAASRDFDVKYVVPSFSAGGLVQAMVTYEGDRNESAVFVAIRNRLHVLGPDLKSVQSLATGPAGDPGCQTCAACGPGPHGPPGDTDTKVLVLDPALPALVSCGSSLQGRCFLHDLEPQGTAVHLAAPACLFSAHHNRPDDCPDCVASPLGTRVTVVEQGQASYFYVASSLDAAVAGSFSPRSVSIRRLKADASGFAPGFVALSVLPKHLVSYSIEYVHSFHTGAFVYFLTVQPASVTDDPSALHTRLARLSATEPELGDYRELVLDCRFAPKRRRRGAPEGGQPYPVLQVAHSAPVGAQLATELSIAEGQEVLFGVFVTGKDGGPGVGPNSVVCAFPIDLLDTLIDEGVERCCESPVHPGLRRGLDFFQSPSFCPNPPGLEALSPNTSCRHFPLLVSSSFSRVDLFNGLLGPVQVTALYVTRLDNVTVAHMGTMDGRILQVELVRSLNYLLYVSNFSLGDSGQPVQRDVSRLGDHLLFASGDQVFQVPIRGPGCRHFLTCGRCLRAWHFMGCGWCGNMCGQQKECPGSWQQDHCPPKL
In words: SPR (Biacore 3000), Fab over directly immobilized MST1R-Fc. The protocol:
With reference to Table 1, the affinity of MOR X antibodies was measured by surface plasmon resonance (Biacore) on immobilized recombinant human MST1R. The Biacore studies were performed on directly immobilized antigen.
The kinetic constants kₒₙ and koff were determined with serial dilutions of the respective Fab binding to covalently immobilized MST1R-Fc fusion protein (R&D systems) using the BIAcore 3000 instrument (Biacore). For covalent antigen immobilization standard EDC-NHS amine coupling chemistry was used. For direct coupling of MST1R-Fc fusion protein CM5 sensor chips (Biacore) were coated with ˜600-700 RU in 10 mM acetate buffer, pH 4.5. For the reference flow cell a respective amount of HSA (human serum albumin) was used. Kinetic measurements were done in PBS (136 mM NaCl, 2.7 mM KCl, 10 mM Na₂HPO₄, 1.76 mM KH₂PO₄ pH 7.4) at a flow rate of 20 μl/min using Fab concentration range from 15.6-500 nM. Injection time for each concentration was 1 min, followed by 3 min dissociation phase. For regeneration […] 10 mM HCl was used. All sensograms were globally fitted using BIA evaluation software 3.2 (Biacore).

In assay [2] the target is T1, recombinant MST1R-Fc fusion protein …. In words: Solution Equilibrium Titration (SET, ECL based), Fab.
Assay [3] shares this target. The assay is described as follows: Solution Equilibrium Titration (SET, ECL based), Fab; SET (Fab), in solution; not Biacore on immobilized antigen.
Assay [4] concerns the target T2, cynomolgus monkey MST1R with N-terminal Flag tag, expressed on HEK293T cells (cynomolgus monkey, UniProt Q04912 27-1400 (human entry)).
T2 construct: ORF cloned excluding the signal peptide region; also called cynomolgus MST1R; not shown: N-terminal Flag tag from vector pFLAG-myc-CMV-19 (Sigma)
T2 chain: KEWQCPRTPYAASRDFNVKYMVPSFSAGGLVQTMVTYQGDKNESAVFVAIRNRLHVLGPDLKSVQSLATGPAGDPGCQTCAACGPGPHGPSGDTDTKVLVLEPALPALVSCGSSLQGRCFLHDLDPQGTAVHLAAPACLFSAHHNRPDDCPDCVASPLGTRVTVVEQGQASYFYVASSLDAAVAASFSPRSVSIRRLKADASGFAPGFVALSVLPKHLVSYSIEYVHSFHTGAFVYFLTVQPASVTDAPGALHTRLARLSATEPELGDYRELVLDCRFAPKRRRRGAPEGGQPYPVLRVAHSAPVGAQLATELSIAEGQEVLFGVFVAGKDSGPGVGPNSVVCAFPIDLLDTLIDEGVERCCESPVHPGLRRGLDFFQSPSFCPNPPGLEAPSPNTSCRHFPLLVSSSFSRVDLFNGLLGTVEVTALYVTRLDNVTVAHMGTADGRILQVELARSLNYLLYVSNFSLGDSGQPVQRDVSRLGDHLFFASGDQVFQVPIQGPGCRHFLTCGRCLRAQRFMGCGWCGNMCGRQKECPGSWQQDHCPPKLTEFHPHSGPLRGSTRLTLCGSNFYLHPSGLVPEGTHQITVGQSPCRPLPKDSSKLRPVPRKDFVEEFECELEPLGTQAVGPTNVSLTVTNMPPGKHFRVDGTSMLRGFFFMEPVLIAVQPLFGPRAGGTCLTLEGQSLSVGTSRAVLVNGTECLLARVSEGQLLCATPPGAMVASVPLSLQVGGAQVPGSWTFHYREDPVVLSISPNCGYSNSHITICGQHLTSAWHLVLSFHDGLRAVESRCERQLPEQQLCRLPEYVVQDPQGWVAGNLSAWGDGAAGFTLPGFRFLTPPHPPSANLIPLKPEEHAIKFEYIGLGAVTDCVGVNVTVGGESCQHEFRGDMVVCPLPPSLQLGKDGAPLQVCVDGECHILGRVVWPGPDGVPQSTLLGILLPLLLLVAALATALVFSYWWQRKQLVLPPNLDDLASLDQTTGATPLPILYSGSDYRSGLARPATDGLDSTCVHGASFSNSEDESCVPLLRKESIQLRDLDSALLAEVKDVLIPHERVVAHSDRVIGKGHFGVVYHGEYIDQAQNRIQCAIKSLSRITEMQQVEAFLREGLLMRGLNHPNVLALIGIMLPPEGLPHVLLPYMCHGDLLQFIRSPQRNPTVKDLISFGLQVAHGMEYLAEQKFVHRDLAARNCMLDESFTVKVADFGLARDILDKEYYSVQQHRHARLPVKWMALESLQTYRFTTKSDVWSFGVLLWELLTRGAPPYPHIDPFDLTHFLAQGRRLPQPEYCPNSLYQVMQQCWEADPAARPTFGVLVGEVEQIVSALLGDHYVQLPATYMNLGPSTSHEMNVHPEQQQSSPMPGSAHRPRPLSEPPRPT
The assay is described as follows: flow cytometry on transfected HEK293T cells, 2 ug/ml IgG1. The protocol:
Cells (5×10⁵ cells/well) were incubated with Fab or IgG antibodies at the indicated concentrations in 50 μl FACS buffer (PBS, 5% FCS) for 60 min at 4° C. in round bottom 96-well culture plates (Corning). Cells were washed twice and then incubated with Fluorescein Isothiocyanate (FITC) conjugated detection antibody for 30 min at 4° C. Cells were washed again, resuspended in 0.3 ml FACS buffer and then analyzed by flow cytometry in a Cytomics FC500 (Beckman Coulter, Inc.). Data were analysed via FlowJo software (Tomy digital biology Co., Ltd.). Polyclonal goat anti-hMSP R IgG (R&D systems) or anti-FLAG M2 antibody (Sigma) was used as a positive control and MOR03207 (anti-lysozyme) antibody was used as a negative control.
FACS-analysis of MST1R ortholog-expressing cells: Human MST1R (cDNA nucleotide sequence is shown as GenBank Accession No: NM_{—}002447.2), cynomolgus monkey MST1R and mouse MST1R (cDNA nucleotide sequence is shown as GeneBank Accession No: NM_{—}009074.1) expression vector containing N-terminal Flag tag (pFLAG-myc-CMV-19, Sigma) were constructed. cDNA encoding cynomolgus monkey MST1R was amplified by PCR using cynomolgus monkey stomach cDNA as a template with forward and reverse primers having nucleotide sequences of SEQ ID NO: 34 and 35, respectively. By sequencing analysis of PCR product, the cynomolgus MST1R ORF nucleotide sequence was identified as shown in SEQ ID NO: 36. The corresponding amino acid sequence was shown in SEQ ID NO: 37. Then human, cynomolgus monkey and mouse MST1R ORF cDNA, excluding signal peptide regions, were amplified using respective forward and reverse primers having nucleotide sequences of SEQ ID NO: 38 and 39 (human), 40 and 41 (cynomolgus monkey), and 42 and 43 (mouse) with appropriate cloning sites and then cloned into pFLAG-myc-CMV-19. An amplified human MST1R fragment encodes amino acids corresponding to GenBank Accession No: NP_{—}002438.2 (SEQ ID NO: 45). A Mouse MST1R fragment encodes amino acids corresponding to GenBank Accession No: NP_{—}033100.1 (SEQ ID NO: 47) except for those amino acid differences at positions: 688 (Leu to Pro), 713 (Ile to Val), 714 (Ala to Gly) and 719 (Ala to Val). These expression vectors were transfected into HEK293T cells. For FACS-analysis, cells were incubated with 2 μg/ml primary antibodies followed by incubation with FITC-labeled secondary antibody as described above.
(Flow cytometry measures light scatter and fluorescence of single cells or particles in a stream.)

For assay [5], the target named is MST1R on cells (293alpha cells transfected with pcDNA-DEST40 MST1R; endogenous on PC3, T-47D and BxPC-3 cells) (human, UniProt Q04912 25-1400). In words: cell-based or functional assay.

B1: MOR07923 Fab (Fab, V domains shown)
VH: QVQLVESGGGLVQPGGSLRLSCAASGFTFNSYSMSWVRQAPGKGLEWVSYISSRSSTTYYADSVKGRFTISRDNSKNTLYLQMNSLRAEDTAVYYCARGYFHGMDYWGQGTLVTVSS
VL: DIVLTQSPATLSLSPGERATLSCRASQSVSFDYLGWYQQKPGQAPRLLIYGASNRATGVPARFSGSGSGTDFTLTISSLEPEDFATYYCFQYLIVPFTFGQGTKVEIKR
notes: carries two C-terminal tags (FLAG and Strep-tag II); also called Fab MOR07923
As to B1, the Kd in assay [1] is 0.07 nM; in assay [2] it was 0.02 nM.

B2: MOR07926 Fab (Fab, V domains shown)
VH: QVQLVESGGGLVQPGGSLRLSCAASGFTFNSYSMSWVRQAPGKGLEWVSYISSRSSTTYYADSVKGRFTISRDNSKNTLYLQMNSLRAEDTAVYYCARGYFHGMDYWGQGTLVTVSS
VL: DIVLTQSPATLSLSPGERATLSCRASQSVSFDYLGWYQQKPGQAPRLLIYGASNRATGVPARFSGSGSGTDFTLTISSLEPEDFATYYCFQALIMPFTFGQGTKVEIKR
notes: carries two C-terminal tags (FLAG and Strep-tag II); also called Fab MOR07926
For the molecule B2, the Kd in assay [1] was determined as 0.13 nM; in assay [2], 0.04 nM.

B3: MOR07924 Fab (Fab, V domains shown)
VH: QVQLVESGGGLVQPGGSLRLSCAASGFTFNSYSMSWVRQAPGKGLEWVSYISSRSSTTYYADSVKGRFTISRDNSKNTLYLQMNSLRAEDTAVYYCARGYFHGMDYWGQGTLVTVSS
VL: DIVLTQSPATLSLSPGERATLSCRASQSVSFDYLGWYQQKPGQAPRLLIYGASNRATGVPARFSGSGSGTDFTLTISSLEPEDFATYYCQQYNINPFTFGQGTKVEIKR
notes: carries two C-terminal tags (FLAG and Strep-tag II); also called Fab MOR07924
In the case of B3, the Kd in assay [1] worked out at 0.2 nM; in assay [2], 0.03 nM.

B4: MOR07925 Fab (Fab, V domains shown)
VH: QVQLVESGGGLVQPGGSLRLSCAASGFTFNSYSMSWVRQAPGKGLEWVSYISSRSSTTYYADSVKGRFTISRDNSKNTLYLQMNSLRAEDTAVYYCARGYFHGMDYWGQGTLVTVSS
VL: DIVLTQSPATLSLSPGERATLSCRASQSVSFDYLGWYQQKPGQAPRLLIYGASNRATGVPARFSGSGSGTDFTLTISSLEPEDFATYYCLQYFNPPHTFGQGTKVEIKR
notes: carries two C-terminal tags (FLAG and Strep-tag II); also called Fab MOR07925
For B4, the Kd in assay [1] is 0.02 nM; in assay [2], 0.01 nM.

B5: MOR07692 Fab (Fab, V domains shown)
VH: QVQLVESGGGLVQPGGSLRLSCAASGFTFNSYSMSWVRQAPGKGLEWVSYISSRSSTTYYADSVKGRFTISRDNSKNTLYLQMNSLRAEDTAVYYCARGYFHGMDYWGQGTLVTVSS
VL: DIVLTQSPATLSLSPGERATLSCRASQSVSFDYLGWYQQKPGQAPRLLIYGASNRATGVPARFSGSGSGTDFTLTISSLEPEDFATYYCQQYYNMPYTFGQGTKVEIKR
notes: carries two C-terminal tags (FLAG and Strep-tag II); also called Fab MOR07692
In the case of B5, the Kd in assay [1] came out at 0.8 nM; in assay [3], 0.25 nM.

B6: MOR07919 (human IgG1) (antibody, V domains shown)
VH: QVQLVQSGAEVKKPGESLKISCKGSGYSFTNYWISWVRQMPGKGLEWMGFIYPDDSYTRYSPSFQGQVTISADKSISTAYLQWSSLKASDTAMYYCARFSYRHYLDMDDHWGQGTLVTVSS
VL: DIELTQPPSVSVAPGQTARISCSGDSLGSKYVHWYQQKPGQAPVLVIYRDNKRPSGIPERFSGSNSGNTATLTISGTQAEDEADYYCQSYDATEFTYVFGGGTKLTVLG
For the molecule B6, the binding result in assay [4] is listed as “binds”. The “Reporter assay IC50 (ng/ml); Elk1 luciferase reporter gene assay in the presence of 100 ng/ml MSP” value in assay [5] was determined as 87.6 ng/mL.

B7: MOR07919 Fab (Fab, V domains shown)
VH: QVQLVQSGAEVKKPGESLKISCKGSGYSFTNYWISWVRQMPGKGLEWMGFIYPDDSYTRYSPSFQGQVTISADKSISTAYLQWSSLKASDTAMYYCARFSYRHYLDMDDHWGQGTLVTVSS
VL: DIELTQPPSVSVAPGQTARISCSGDSLGSKYVHWYQQKPGQAPVLVIYRDNKRPSGIPERFSGSNSGNTATLTISGTQAEDEADYYCQSYDATEFTYVFGGGTKLTVLG
notes: carries two C-terminal tags (FLAG and Strep-tag II); also called Fab MOR07919
For B7, the Kd in assay [1] worked out at 0.98 nM; in assay [2] it was 0.27 nM.

For the origin of these results see patent US20120034215A1 (Daiichi Sankyo, published 2012).
